Experimental data from PMC11537708.

What was measured:
[1] = target: human full-length CD45 extracellular domain (ECD) isoform RABC (human) (UniProt P08575); assay: SPR; GE Biacore T100; about 200 RU of human CD45 ECD, E3/49K immobilised on an SA-chip, reference channel with an unrelated protein; HBS-P+; twofold serial dilutions, 30 s association, 30 ul/min, 25 °C
[2] = target: human full-length CD45 extracellular domain (ECD) isoform RABC (human) (UniProt P08575); assay: cryo-EM structure; fully glycosylated human CD45 ECD bound to E3/49K, purified by size exclusion chromatography; 0.01% FOM; 3.8-Å nominal resolution map

Chain of UniProt P08575 (P08575 26-577): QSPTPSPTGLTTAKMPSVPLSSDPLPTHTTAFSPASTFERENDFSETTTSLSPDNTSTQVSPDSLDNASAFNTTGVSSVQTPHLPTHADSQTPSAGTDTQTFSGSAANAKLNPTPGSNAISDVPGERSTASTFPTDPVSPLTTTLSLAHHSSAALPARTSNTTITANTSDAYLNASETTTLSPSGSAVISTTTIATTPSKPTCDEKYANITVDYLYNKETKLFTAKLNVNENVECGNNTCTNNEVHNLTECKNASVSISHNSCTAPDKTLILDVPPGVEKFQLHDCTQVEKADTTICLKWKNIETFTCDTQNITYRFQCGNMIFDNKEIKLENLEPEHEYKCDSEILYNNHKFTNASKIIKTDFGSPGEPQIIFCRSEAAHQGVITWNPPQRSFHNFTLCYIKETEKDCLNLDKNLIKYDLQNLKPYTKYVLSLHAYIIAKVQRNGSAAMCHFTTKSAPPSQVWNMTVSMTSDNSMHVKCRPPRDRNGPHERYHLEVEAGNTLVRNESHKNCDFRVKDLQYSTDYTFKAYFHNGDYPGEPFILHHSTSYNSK

Substance	Kd [1] [nM]	koff [1] [s⁻¹]	kon [1] [M⁻¹ s⁻¹]	stoichiometry N (CD45 per E3/49K) [2]
adenoviral D19a strain E3/49K ECD (domain or fragment)	0.3	0.000598	2.08e+06	2
E3/49K R1 domain (domain or fragment)	74			
E3/49K R2 domain (domain or fragment)	145			
